Results taken from patent publication US20260000752A1.

Biological target: human IgG (used as a control) (human)
Test: ELISA pH 7.4; human IgG control coated, biotinylated FcRn titrated, streptavidin-HRP

EC50: 0.0292 µg/mL
Substance: recombinant human FcRn, biotinylated (R&D Systems) (from UniProt P55899 24-297; P61769 21-119) (receptor)
